The data set can be described thus: label from the status in PepcDB records.
Consider “MTAPEPSRDAKRLVRIDGVTKRFGDAPPALDAVSGAIGGGAITGLVGPDGAGKTTLIRLMTGLMLPDTGTMNVLGFDTRKNAAGIQAAIGYMPQRFGLYEDLSVQENLDLYADLRGLPKSERAGAFDELLTFTDLKRFTTRLAGKLSGGMKQKLGLACALLKKPRLLLLDEPGVGVDPISRRDLWKMVENLTKEGIGVVWSTAYLDEAEACDHVLLLNQGKLLFSGKPDEMTERVSDRVFRVSDVTGRRRQVLAELLQADGVIDGVIQGEAIRLVAANGKTPDIGKAGDGALLSPAPPRFEDAFVDMLGGGPGGRSRLAEAQEPLKAEGDRPVIEAKGLTKRFGDFTAADDISFDIRRGEIFGLLGPNGAGKSTTFKMLCGLLKPTGGEGRVAGFDLRRDAAEARNQLGYMAQKFSLYGDLTVMQNLEFFAGVYGLRGQRRHERIELMTEIFDFGRHAREPAKDLPLGLKQRLALACAVMHEPRALFLDEPTSGVDPITRREFWTHINGLVEKGVTVLVTTHFMDEAEYCDRISLIYRGRSIALGSPDELKARVATKNGPDPTMEDAFIALVQQSEAEDAA”, for which the protein production entry is “failed”.

For the sequence “MSIVIVGGNERMVCQYEDICKGYGCKAKVFAKEKGAMKKKIGAPDLMILFTGTVSHKMVNCAVEEAKKKSIPVCRCHTSSASALESILREYCALEHHHHHH”, the protein production entry is listed as “failed”.

For the sequence “MHESMREIAERATFQSFANCYRREIDPGMPSQHRPECGDRRTYVEWSCPMAAATLRAEVERESLCGPFRFGRVFICRAPDNAWHEIAPLRALYLMVQECYSGIGAARAEALRNEEAELLGRVLASYQCIADSLQRSSGEAGRTFLDGEQSLMFGHWLHPTPKSRQGMADWQQPTYAPEHRGQFQLTYFAVDAALLRYGSAGDVSVSGILETLLPEADRPTLRPGEALIPLHPMQAEAVMLSPDIAELAREGRLRRLGPFGAEFSPTSSVRTVYSPAIPWMLKFSLPVRITNSLRINRMPELKAGVAMSRLFARTDFLARHPCFRLIRDPAYLTLGLPGRTESGFEIIFRENPFTTGNETKGITIAALTADPPPHARSRLDVLVREYAAQQGLPVASACRHWFSAYLDCALDPLVRLYNELGVALEAHQQNVLLDVSSGLPTASYYRDNQGFYLSNAHRDRLVSLVPETAEIGGLYFDDHVIQERFAYYLIVNQICSMIARMGQDRLIDEEALLIMLRERLNGLARELAGVGRDFASGIVDRPTVAAKANLLTRMLDIDELEAEDGRAIYVQLPNPLFGDRRSARRGEARAASR”, the protein production entry is listed as “failed”.

Consider “MNNEAVFSARLSSTQHVGLCRLCNSPLVHTFVDLGMSPPCESFVAADAANDVEPFYPLHAFVCDECFLVQLQEYVAPENIFTEYAYFSSFSDSWVAHAKRYCDMVIERFALGQSSFVVELASNDGYLLQHFLTSNIPMLGIEPAVNVAKVAIGKGIPTLTEFFNEALATDMAARGQKADLIIGNNVLAQVPDINDFVAGMKTLLKPEGVITLEFPHIEKLIAENQFDTIYHEHFSYFSLLTIEKMARRHGLKVFDVEEIPTHGGSLRVFFSHEDIRFPREARVDSLLARELNAGLDKIETYTAFAEAVRQTKRNLLSFLIRLKEMRKSICAYGAPGKGNTLLNYCGIGTDFIDFAVDRNPYKHGRLTPGMHIPIRPVSEIPHMKPDYVLILPWNLKNEIVAQMKDIRNWGGKFIVPIPDISIIDPKELVQ”, for which the protein production result is reported as “failed”.

For the sequence “MEIKAYKKKNGTTAYKFKAYIGKKNGKSQYAEKSGFKTKADARAALHNIQEEIDNPTPKSSMTFKELYDEWLLVYEKEVQNSTYYKTTRAFEKHVLPVIGSTKLSDFTPMELQNFRNDLSEKLKFARKLFGMVRKVFNHAALLSYIQANPALPVTSQGIKKKVEEKKDFYDTDELRDFMALVEKTNDIKKIALFRILAFTGIRKGELLALEWKDYRKSTLDINKAISHSPVGYEILPPKANSNRLLSLDEKTCKILDELHQTYPESTRIFESENGGMLSPSKPRKWLLEITKEKEIEPIRIHAFRHTHASLLFESGMSLKQVQYRLGHADLKTTMNIYTHITKFAKDKIGQQFSDYIDF”, the protein production result is given as “failed”.

For the sequence “MFTGSIVALVTPMDEKGNVSRSCLKKLIDYHVANGTSAIVSVGTTGESATLSHDEHGDVVMMTLELADGRIPVIAGTGANATAEAISLTQRFNDSGIVGCLTVTPYYNRPTQEGLFQHFKAIAEHTDLPQILYNVPSRTGCDMLPETVGRLAEIKNIIAIKEATGNLTRVHQIKELVSDDFILLSGDDASALDFMQLGGHGVISVTANVAAREMADMCKLAAEGQFAEARAINQRLMPLHNKLFVEPNPIPVKWACKALGLVATDTLRLPMTPITDHGRDIVKAALQHAGLL”, the protein production entry is “not failed”.

Take “MALSDTKLRKIKAPYNGEAELADRDGLSVRVSPKALITFNYRFRWEGKQQRIKLGRYPGLKLIDARKKVNEYRHNLDEGLDPRVVQNESRSHNLFGDMCEAFMTKYVMTELRPKTQTLYKSTFNKYVTPYKNIDIERYKYTDWIAYFDWVKKESSSANAGSVLKRFKAVANWAKARGQIKHSHLIDIPIKAIGSHQQKRERCLEWDEVIGLWRQIESSKSTPQCKTCIQLLLLTGARNAEIREARRDEFDLDKNIWLLPPERSKTKKQVRRPLSTGVIELINKLDLIYGQDREYLIAGDIKGKPLTTHAVNRFVQRMNNHLKYPHFVPHDFRRTIVTRLSEHKVELHVTEKMLGHELGGILTRYNKHDWIDEQREAYELYWQKVTLLLKN”: the protein production entry is listed as “failed”.

Turning to “MLKLHLSEEERVIFASNLVASKKRFTKMEKGRFGNFLDNAKIISHIINPCLYDVEDATGYFLYSFTLNDERPK”, the protein production entry was “failed”.

As to “MSNGNKSEKKTLILALVAGMCGDALLSWLTMSEVSFSIFPLIALVLAVQALYQEYLNNPVSEDIPLVGLACFFVGAFGHSAFIKAQYPEAGSNFFAIMVSMILLAWIGKKLGFMEKKTSAE”, the protein production entry was “failed”.

Turning to “TQSNLYSFLKAISNRFSQYNYSSILCVTSISFDIFILETLFPIFMGKTCVFASDEEIEDISKLTQLIRIYQVDTIQSTPSRWGIFTEDEQLMTLLKERLKLVLVGGEKLTKNIAEKLLSIGGKLINLYGPTEATVWAFASEVTDPNQIYLGEP”, the protein production entry was “failed”.

In the case of “MKKIGIIGAGGIARAHATALSTIKNAELVGVYDINQQNAESFVKTFGGKSFENVDELIDASEGLIVASPNFCHKEHALQALGKHKHVLCEKPMAISLEEASIMKDTAERLSVRASMGFNYRYLSYVNILKSLIINNELGNILSIKVHFKKNSALRRKKFTWRDDANSKKTSGSLGDLGIHLIDMVWYLFESDFITESVRAKMNTNVKTKEDKQVLVDDYAEIYGQLRNKVFVNIITSKCSVPEDCGFSIEVVGHKKEFKYHTGNPHVYKLIDGLNVVDCPVPQSLLNDPPNEFYGWADSFRSELINWIASTQNDWVEIPSFSDGFRSQEVLEMFFEKDS”, the protein production result was “failed”.

Regarding “MRLYTRTGDKGKTSVIGGRLAKDDTRVVAYGTTDELNSFVGLAITQLDENTFADIRGELFKIQHELFDCGGDLAMLKVKEDRPYKAKQEIVDFLEQRIDAYIKEAPELERFILPGGSEAAASLHVCRTIARRAERYVVRLQQEGEINPIVLKYLNRLSDYFFAVARVVNSRLQVPDVEYERSAIVFREGKRKEDKK”, the protein production entry is on record as “not failed”.

“MLTRYLAIAAIALALTGLGGCSVNPVTGEKQLSLISENQELALGAEQYTPTQQTQGGRFYIDPELSIYVRDVGQKLARVSDRPDLPYEFVVLNNSVPNAWALPGGKIAINRGLLVELEDEAQLASVLGHEIVHAAARHSVQRMQQGMLISAGVAGLGFALSDNEWAGLIMGGAALGAQLALAQYSQGDELESDAYGIRYMKEAGYDPQAAVELQQLFLKLSEGRQSGWLDGLFATHPPSAKRVQENQELVQNIGSGGYRGRDVYQRRIAKLKELQPAYDAHDEAMKLASEGKFEAALDQVNKAIKLEPREAMLFALRGRIYRGMEQPEKAKADFDKAVSLYPEMFQYQLYSGLNELELNNLGKAKTHLEKANQVVPTSIAYLRLGDIARQQGQRSEAVAYYSTAAEAGGDVGAEAQRKLAELSN”: the protein production entry is recorded as “failed”.

For the sequence “MNQLTSSFIQNLAEDNIYKLPPHSIEAEQSVLGGLMLDNQAWDKVADIIIESDFYRQDHQLIYQHISRLIEQNKPADVITVAESLENAAQLQHAGGLAYIGAIAQNTPSAANIRRYAEIVRERSIMRKL”, the protein production entry was “failed”.

Turning to “MVSWHPSVYLAQRTSKAAKNILAAPPLILSISFIFLILIGTLILKLPISTTVPVTWSQSLFNATSAVTVTGLVVFDVGTVYTTFGQVVIALLIQLGGLGIMTFAIVTLLALGAKIGFLQNTIAKEAYNSTNTATLVTTAKSVLIFSLCVELIGMIILAVSWSDELGWRTSLFHGFFYTISAFNNAGIGLSPDSLMPYVEDPIINLTITALFIIGGLGFTVWIDLWRKKRWDKLTTYSKMMIIGTISINAIAVLAIYCIEYNNPKTLVPLSETGKWLASWFQAVTPRTAGFNTLAMNELEDATTAIMLMLMFIGGGSLSTASGIKVVTFMVLILATYGYLRRYDFVYVYHRGISKDTISKALALAMISVGTIWASIFFLLLSENASMIDIIFEAVSAFGTVGLSRGLTSNLTVTGQFIIIFLMFMGRLGPLTLAYFLASPKSKRIRYPETKLTIG”, the protein production result is “failed”.

With “MTEPYAVPVPRGYRVGVWEVHAPIATGAFGSVYAARRTGGDDTKASPTRPGGDDNTKAPPTRPGGDGTGHRPSRPGTTDTAGTDDSHGTGTGTGTGTPSRAQTDTAHPAEGDTDDPGHTSGNGTTGTDGTRRSHGTGTGTPSRAHTDTAHPAEGDTDNPGHTSGNGTTGTDGTGRSHGTGTGTGTHNPSRVQTGAAHPAKGDTDNPGRTGGDGTARRPGRAGVVGAGRGGDAGGEVPDTVALKFLPTGTGTPRQLAHLRDLVEREVELLRRLRRPRLIRMYETLTVDDPAHPRLDGATVLVLERAEGSLSALLAATPRPPAGPALLAQVCEGLQQLHRAGWVHGDLKPANVLLMADGSARLADFNMAAELEGTHAYTPAFATPDYTPPELLWSEIGERGRRIRPSADVWAFGVLAHLVLTGSFPLPGGTPTARRDAAVAYARGGHELRLSPEPPPGWREIVRACLTRTHADRIGTDALLRRVTGTTEGASGGAGFSPRTRARPRRRVLAALAAGLLALAALGYGVARWAGDGREPAAGPRPGGTGSVAAASYGAAELRTDRDVPPAYRLLIVETAHDCDREEVSPALIAAMLKVESDFDPDLADPAKDEYGIARWTPSVLRWWMNEDGTPGETVPQPPFPPAESVPAMGRYLCWIAPRLDAGLPGDRSVLVAVAYRTSYRKVNDAGGVPPKYRDYADRVAHHLKEYTPRRGK”, the protein production result is recorded as “failed”.

As for “MKWLRSEMKTFAIHLPQFHTFPENDRWWGKGFTEWTNVKKAKPLYEGHSQPLIPINSHYYDLSNPEEMTRQHRLAAQYGIDGFVYYHYWFNGKKLMEKPVEDLLTNKEAKQQYCLCWANEPWTRAWDGKNKEILMPQTFGGQEDWLNHIRYLISFFKDERYLRIQGRPVFFVYSPKNIPNFDNMIEFWDSYLERCGEEKIYLIEYISSFNPKAFSDYSKAVFEFEPLYSAHYEISFLKQADRFIDKKMKRLDCLDYDYLWNRILNKQRKYGTRQIVRSAFTNFDNSPRKGTRAFITQGSSYTKFADYLNQLIHSNRQDYMDFTVINAWNEWGEGAILEPTESDQYGWLQAVKDAVQ”, the protein production entry is “failed”.

(Values after a protein production outcome set (Wang et al. 2014).)
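Note: failed if final PepcDB status was selected cloned or expressed and not failed if soluble or beyond.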
